# Assay results reported in paper PMC2955198 (Cell, 2010).
# T1: Csm1/Lrs4 complex (S. cerevisiae, UniProt P25651 1-190; Q04087 1-347)
# T1 sequence (looked up) 1: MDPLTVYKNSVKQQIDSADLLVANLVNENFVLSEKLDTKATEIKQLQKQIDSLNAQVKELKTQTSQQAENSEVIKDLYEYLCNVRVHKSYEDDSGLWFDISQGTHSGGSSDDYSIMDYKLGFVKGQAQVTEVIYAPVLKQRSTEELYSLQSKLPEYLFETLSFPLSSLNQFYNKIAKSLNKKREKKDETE
# T1 sequence (looked up) 2: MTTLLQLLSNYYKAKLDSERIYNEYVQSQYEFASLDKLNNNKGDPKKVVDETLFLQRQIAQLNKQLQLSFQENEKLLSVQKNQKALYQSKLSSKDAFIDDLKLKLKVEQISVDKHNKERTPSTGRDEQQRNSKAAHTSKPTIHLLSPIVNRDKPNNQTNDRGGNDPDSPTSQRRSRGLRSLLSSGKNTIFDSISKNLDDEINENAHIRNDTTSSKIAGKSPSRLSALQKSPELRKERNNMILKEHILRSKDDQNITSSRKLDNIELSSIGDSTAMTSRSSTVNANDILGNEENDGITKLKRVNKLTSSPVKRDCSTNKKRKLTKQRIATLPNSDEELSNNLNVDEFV
# B1: purified four-protein MIND (Mtw1 including Nsl1, Nnf1, and Dsn1) kinetochore complex (complex, S. cerevisiae)
# chain 1: MSAPTMRSTSILTEHLGYPPISLVDDIINAVNEIMYKCTAAMEKYLLSKSKIGEEDYGEEIKSGVAKLESLLENSVDKNFDKLELYVLRNVLRIPEEYLDANVFRLENQKDLVIVDENELKKSEEKLREKVNDVELAFKKNEMLLKRVTKVKRLLFTIRGFKQKLNELLKCKDDVQLQKILESLKPIDDTMTLLTDSLRKLYVDSESTSSTEEVEALLQRLKTNGKQNNKDFRTRYIDIRTNNVLRKLGLLGDKEDEKQSAKPDARTQAGDIVSIDIEEPQLDLLDDVL
# chain 2: MSQGQSKKLDVTVEQLRSIYHQFHDILEEKTDLHLPKKEYDDDAVRREVQIQLQEFLLSAMTMASKSLEVVNADTVGKTVKQLIMESQEKYMEPFDLDLNEQVRKMYQEWEDETVKVAQLRQTGPAKINEVYNNSKDEYLAQLDGRIGVLQARMMQQQSADHDDSTDDADDHINWEHIKQDYVASLNELYQTQQDLPKVRYNVEKVKRLMDFLEED
# chain 3: MVNSHGIRYIRLKQVFNRALDQSISKLQSWDKVSSCFPQYVNSKQGAINVANCQRQLTEFWTELCQREFKEIMEERNVEQKLNELDELILEAKERYTDRDQDEVNKGPAIDELSSKELVECHLYSQRMHAIHEIDERLAKVNEMNDQLAQELKDLETQVEVEKNEIGKMYDEYLGSHTDQPANVLLVQSLNDMVLELKENY
# chain 4: MSLEPTQTVSGTPPMLHQRTHKQVYPLRMETIPILESDSKATLQSNEPTQKDEEETEYFENKQSVSNLSPDLKFKRHKNKHIQGFPTLGERLDNLQDIKKAKRVENFNSSAPIADDNHSGDATANATANATANATANVNASAMPAPYMPYYYYYHPMNAPTPAMIPYPGSPMHSIMPNSSLQPFYSQPTAAGGPDMTTPQNISSSQQLLPAPQLFPYGSFHQQQLQQPHYIQRTRERKKSIGSQRGRRLSMLASQANGGSTIISPHKDIPEEDFYTVVGNASFGKNLQIRQLFNWCLMRSLHKLELKAKNQEEEGELEHLTKKSKLESTKAETDYVDPKRLAMVIIKEFVDDLKKDHIAIDWEDEEKYEDEDEEKILDNTENYDDTELRQLFQENDDDDDDDDEVDYSEIQRSRRKFSERRKALPKEPKKLLPNSKNVENTKNLSILTSKVNAIKNEVKEWAVTLDTSRPDLEWQELTSFSSQPLEPLSDTEEPDLAIADVETKLETKVDELRYQSHILNSHSLALNEITNSKVNKLNIETMRKISSETDDDHSQVINPQQLLKGLSLSFSKKLDL
# Target: T1, Csm1/Lrs4 complex
# Test: SEC
binder,measurement,value
B1,stoichiometry N,≤ 4 MIND complexes per Csm1/Lrs4 complex
